Laboratory results from US20240175001A1.

Molecular target: SNAP-25 (rat) (UniProt P60881)
Test: cell-based or functional assay

UniProt P60881, sequence (P60881 whole entry): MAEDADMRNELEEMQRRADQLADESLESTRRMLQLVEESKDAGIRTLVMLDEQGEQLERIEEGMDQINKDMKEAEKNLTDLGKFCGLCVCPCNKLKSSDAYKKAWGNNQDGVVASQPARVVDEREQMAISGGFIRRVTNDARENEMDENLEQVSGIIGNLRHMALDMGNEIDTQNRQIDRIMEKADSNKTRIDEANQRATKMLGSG

native BoNT/A1 (LIST) was tested, and the pEC50 (percentage SNAP-25 cleavage in rat eSCN, 24 h, Western blot) was 12.3.
